Results as given in PMC8609353.

What was measured:
[1] = target: N1-VASP: recombinant N1 neuraminidase head domain of A/Michigan/45/2015 (H1N1) fused to the vasodilator-stimulated phosphoprotein tetramerization domain (human | influenza A virus A/Michigan/45/2015 (H1N1)); assay: cross-linking
[2] = target: N1-SPP: recombinant N1 neuraminidase head domain of A/Michigan/45/2015 (H1N1) fused to the Sendai virus phosphoprotein tetramerization domain (Sendai virus | influenza A virus A/Michigan/45/2015 (H1N1)); assay: cross-linking
[3] = target: N1-MPP: recombinant N1 neuraminidase head domain of A/Michigan/45/2015 (H1N1) fused to the measles virus phosphoprotein tetramerization domain (measles virus | influenza A virus A/Michigan/45/2015 (H1N1)); assay: cross-linking
[4] = target: N1 NA head domain from A/Michigan/45/2015 (H1N1), obtained from N1-MPP by thrombin cleavage (influenza A virus A/Michigan/45/2015 (H1N1)); assay: crystal structure; N1 head after thrombin removal of the MPP domain; sitting drop, 0.2 M calcium acetate, 20% PEG 3350, 20°C; 2.90 Å

With “N1-VASP: recombinant N1 neuraminidase head domain of A/Michigan/45/2015 (H1N1) fused to the vasodilator-stimulated phosphoprotein tetramerization domain” the stoichiometry N [1] was 4.
For “N1-SPP: recombinant N1 neuraminidase head domain of A/Michigan/45/2015 (H1N1) fused to the Sendai virus phosphoprotein tetramerization domain”, the stoichiometry N [2] was 4.
“N1-MPP: recombinant N1 neuraminidase head domain of A/Michigan/45/2015 (H1N1) fused to the measles virus phosphoprotein tetramerization domain” gave a stoichiometry N [3] of 4.
Work on “N1 NA head domain from A/Michigan/45/2015 (H1N1), obtained from N1-MPP by thrombin cleavage (domain or fragment)” yielded a stoichiometry N [4] of 4.
